The data set in a line: soluble on expression in E. coli; label from the status in PepcDB or PDB records.
With “MVHSNGAITSTILKARHADVVRKTSLHHANDLTLIDLVLNVQRLLALPSDANFVLKYKDEEGDLVTLAEDSDLLLALHTSGATLDVTVVVDSRAREAVHDVQKQVEQIKLDVGKLLGALSALDVAQIAEQSNTSVANLSAPKQSHHDNIVFQKSFEAAPPSPVPSEKAELPATIQPSVHEQFNHRPAHVEEEIPLENHYAPPPHQQIPDDLNTSFSSQPPPPIEQFGAIPPPNATIPSFPTSNAASPPVQEFAPPPPQQQQQQFQAPPPPMASHSSISSTPVQQQGFAPPQQFGGPPPSGPPSEYGGYAPPQQQQQQFGAPPPQGAPQQGFGAPPQGPPQGGPPQGSFGAPPPQQFHAPSPQSFGGPPPPVSSAPGNFAPPPQSGPPGAFAPPPSAFGAPQGPGGPGGYGPPPPGGPGAPGSYGPPQGGPGGFGPPPPGGPGAYGPPPTGFPPVGAPPPGAAGAPGGNPFARGPSATGYRQSPYQQ”, the “soluble on expression in E. coli” value is given as “not soluble”.
To “TKKNELNKAHVTIALTNPKTPTNVGAVIRAAGCYQADQIIYNGNRYAQAAKYHKKTLQTDTFNMQDKIPLLQVESFIGIKDSLESIPSSAKIICVDLVEGATPLPHFIHPPEAVYIFGPEDSSVKQEVIDIADDVVYVPTVGCMNLAATVNVLLYDRLAKSL” belongs “not soluble”.
To “MGSDKIHHHHHHMLLVENFDLRATMEQPTSFDEMWGTSGSLREPYREFHDWFGSEDPARLRKKQRDADKLFRLTGITFNVYGKAEAEERLIPFDIIPRIISGSEWARLSRGIEQRVRAINAFLYDIYHKQEIVKAGRIPKEMISRNDAFLPHMIGVEPPGGVYTHIVGIDLVRTGPGEFYVLEDNARTPSGVSYMLENRETMLQMFPELFSQNRVQPVSNYPTDLRRSLAASAPQSCTGKPVVAVLTPGIYNSAYFEHAFLADKMGVELVEGQDLRVIDGRVAMRTTRGYKPIDVLYRRVDDEFLDPLNFNPESALGVPGIMDVYRAGNITIANAPGTGIADDKAIYSYMPEIVEFYTGERPLLQNVQTWRCSEPDALAYVLDNLEDLVVKEVHGSGGYGMLIGPTASKKDLAAFRRKLKARPGNYIAQPTLALSTVPIFSRAGLSPRHVDLRPFVLCSPNKVHITPGGLTRVALKKGSLVVNSSQGGGTKDTWVLED” belongs “not soluble”; to “MSLIKWGFIGCGEVTKTKSGPAFQKVEHSEVVAVMSRDGAKAKAYAKERGIRKWYDDAQELIDDPEVNAIYIATPPSSHATYAIMAMKAGKPAYIEKPMAVTYEECTRINRISKETGVPCFVAYYRRYLPYFQKVKEMVENGSIGNVINVQVRFAQPPRDLDYNRENLPWRVQADIAGGGYFYDLAPHQIDLLQDMFGCILEASGYKSNRGGLYPAEDTLSACFQFDNGLVGSGSWCFVAHDSAREDRIEIIGDKGMICFSVFTYEPIGLHTERGREEICIGNPEHVQQPLIQAVVDHLLGKSVCSCDGESATLTNWVMDKILGKLEGHHHHHH”, “soluble”.
As to “MAKALEQPFDVANIPGPKMATLLEKGKPVANMIKKAKRPLLIVGPDMTDEMFERVKKFVEKDITVVATGSAITRFIDAGLGEKVNYAVLHELTQFLLDPDWKGFDGQGNYDLVLMLGSIYYHGSQMLAAIKNFAPHIRALAIDRYYHPNADMSFGNLWKKEEDYLKLLDEILAEL”, the “soluble on expression in E. coli” value was “soluble”.
Regarding “GMKGENMMVKLIALYEQPEDKQAFDEHYFNTHAPLTRKIPGLRDMKVTRIVGSPMGESKFYLMCEMYYDDHESLQQAMRTDEGKASGKDAMKFAGKLLTLMIGEEMDE”, the “soluble on expression in E. coli” value is recorded as “soluble”.
Regarding “MLSERMLKALNDQLNRELYSAYLYFAMAAYFEDLGLEGFANWMKAQAEEEIGHALRFYNYIYDRNGRVELDEIPKPPKEWESPLKAFEAAYEHEKFISKSIYELAALAEEEKDYSTRAFLEWFINEQVEEEASVKKILDKLKFAKDSPQILFMLDKELSARAPKLPGLLMQGGE”, the “soluble on expression in E. coli” value is on record as “soluble”.
To “MNNYLRKLVEGQHLTEEEMYKAGLLLLNENILESEIAAFLVLLKAKGETAEEIYGLVRALREKALPFSNHIQGAMDNCGTGGDGAQTFNISTTSAFVLAGAGVKVAKHGNRAVSSKTGSADLLEELGVNISSTPNEIDYLLEHVGIAFLFAPAMHPALKRIMKIRKELNVPTIFNLIGPLTNPVNLETQFVGIYKRDMLLPVAQVLQKLGRKQALVVNGSGFLDEASLQGENHVVILKDNEIVETSIEPEKYGFSIVKNEEIRGGNSKENAKITLGVLSGEKSVYRDTVLFNAGLALFANGKAKTIEEGITLAAHSIDSGKALAKLNLLIAASNEELERVN” belongs “not soluble”.
For “MGSDKIHHHHHHLVSDNMVLQQATKVRLWGNATPNSSLKVRSSWDNTEYTAQVNDQGRWEIWVQTPSASFEKQQLTLKNGQDKIVLHDLLIGEVWFGSGQSNMEMPLRGFWHCPIEGGNHAIATSGKYKNSIRYATIQRVGALEPKDYPVGGEWKVCDPRNAPEFGATAYFFATLLTEVLNVPVGIINCSWGGSTVEGWLPKDILRNYSDIDLSLAGNDEKIHPMLQPMIMYNGMLKPASKYTVRGFLWYQGESNVGHPDYAKRLATMVEHWRGLWGQEELPFYLVEIAPYEYGEGDQAAYLREEQYKATRLIPNSGIVSTNDLVQDYEKRQIHPKEKQKIGERLCYMALNKTYGYTTIACEGPQYDHMEVDKDKIILFFKNAEDGFNRDNGIIGFEIAGKDMRFHKANATIDANKKTVIISAPDVKAPIAVRYGFRNFQIGNLQNVQGLPVLPFRTDK”, the “soluble on expression in E. coli” value is given as “not soluble”.
Consider “MSLNVLIVDDEKLIRQGIINFFDWEKEGFQIVGEAANGKDALELISKNEPHIVMTDIVMPVMDGIDLVKRVKRDFPEVEIIVLSSFEEFEYVRSTFHSGVADYILKPRLNEKDLLKTLSEVRGKIPALAKVDSPSRAVPSISDQFEKILNGHAPLSQDDTGEKRFPKGPYRLAVITPIEEQDVHRRKQHLDEREQAITGIDVVCSIEKEGDAVLLLPLEGDVSSSMKQALDDFLKGRDAHALLVSSPFSSIYEAKEVYERDIPLLKQYSFYLPDTPLLIYDELPKTNEGVKTFDLNHFIELCKGRKFAIGFQYLLDYVEYMSTRYTQTSTECKAFLGNIIFNMIVLMGNLKYDVKELEREKYHYFATINAAKNVREATDCFYQFLEVTKQIISVYSNEGSSSIQKMLAYIEEHHSEPLSLSQLANYFHFNPSYLSAYFRQHHDEGFSEYLNKVRIRKAKEWLKSSTIPISEIYALVGYSDHSYFCKVFKKRTGMPPSRYRRENAEGHHHHHH”, for which the “soluble on expression in E. coli” value is recorded as “soluble”.
For “MPAHSLSLYQYYRPPLDWQAQLAFYRLRAVAGMEWFSNTDNDCLEKIAQDKQALEYGRTLQIDDIRAVVHIIHEAHLHRFKLTLTFTPDSPIAGLQKLITQVRRILDLDADMQQIEHNLQRLTDLKLIPKSGLRIPGAGSLEHHHHHH” the value was “not soluble”.
In the case of “GPHMTQEEAVVNASLWEYVRLRESYDADTAQYAYDLVSNFSAPMVRQNYQQFFNYPNPTSPQVILGKHGRLEVEHIASNDVTPGVQQIRYKRTLIVDGKMPMASTWTATVRYEKVTSLPGRLRLTNPGGLVVTSYQTSEDTVSNAGHSEP”, the “soluble on expression in E. coli” value is “soluble”.
To “MRKIVLFGDSITAGYLDEAVSPVLVDLVKRDIAAMGLEEVAVINAGMPGDTTEDGLKRLNKEVLIEKPDEVVIFFGANDASLDRNITVATFRENLETMIHEIGSEKVILITPPYADSGRRPERPQTRIKELVKVAQEVGAAHNLPVIDLYKAMTVYPGTDEFLQADGLHFSQVGYELLGALIVREIKGRLKPKQA” belongs “soluble”.
For “GKKLEPIEELTIDVPEEFMGVVMEKLGPRKAELVNMTSAVNGYTRLEFKIPSRGLIGFRNEFMTDTKGNGIMNSTLIDYEPFRGDIPERSRGSIVVFETGVSVVYGLYSAQERGRLFVGAGVDVYEGMV” the value was “not soluble”; for “MGEREGRVDSLLDTLYNLSEEKEAFFITQKMKKLFSVKLSKSKVILVAACLLLAGSGTAYAAHELTKQSVSVSINGKKKHIRTHANTVGDLLETLDIKTRDEDKITPAKQTKITADMDVVYEAAKPVKLTINGEEKTLWSTAKTVGALLDEQDVDVKEQDQIDPAIDTDISKDMKINIEPAFQVTVNDAGKQKKIWTTSTTVADFLKQQKMNIKDEDKIKPALDAKLTKGKADITITRIEKVTDVVEEKIAFDVKKQEDASLEKGKEKVVQKGKEGKLKKHFEVVKENGKEVSRELVKEETAEQSKDKVIAVGTKQSSPKFETVSASGDSKTVVSRSNESTGKVMTVSSTAYTASCSGCSGHTATGVNLKNNPNAKVIAVDPNVIPLGSKVHVEGYGYAIAADTGSAIKGNKIDVFFPEKSSAYRWGNKTVKIKILN”, “soluble”; for “MGSDKIHHHHHHMDEMKVIEIIKKTLKFSNENIVKGIDDDCAIIKIDENFYLVATTDMMVKKAHIPSILSPYEIGGRILTANVSDIASMGAKPLAFLVSISLSKEEANEKFIKELYSGLDDFSKLYDCPVVGGDTNRGDELILSGTAFGITDNPIYRRGKVGDDICVTNDLGRVYCALTLYYMLKENKISYKEFERLCQKYPKIIEKLRKPIARIKEGLLMNKLINGCCDISDGLGKEITYFKNFEIYSDRIFKLIPEDVIEFCDAFNLNPIKVALNSGEEFELLFTTSKFNKVKDSLKGYSKIYKIGKIIEDGQFIDGEEFYGGGYIHKW”, “not soluble”.
For “ADLPGKGITVNPVQSTITEETFQTLLVSRALEKLGYTVNKPSEVDYNVGYTSLASGDATFTAVNWTPLHDNMYEAAGGDKKFYREGVFVNGAAQGYLIDKKTADQYKITNIAQLKDPKIAKLFDTNGDGKADLTGCNPGWGCEGAINHQLAAYELTNTVTHNQGNYAAMMADTISRYKEGKPVFYYTWTPYWVSNELKPGKDVVWLQVPFSALPGDKNADTKLPNGANYGFPVSTMHIVANKAWAEKNPAAAKLFAIMQLPVADINAQNAIMHDGKASEGDIQGHVDGWIKAHQQQFDGWVNEALAAQK” the value was “soluble”.
On to “MLSAWFSGKYSVLKDENGYVFLDRDGDRFRHILNYLRCGTVHIGEDIRLLGEILEEAEYFGLQSLAQQLKEALLQCRVKQEEKESSVCGRMNNEDNLFHPMFEPLDGFSSSQTSQGEPLLTLLPSSQEFRLDEDF”, for which the “soluble on expression in E. coli” value is “soluble”.
For “MSLSKSDDGDSEESFSISVQSGFEAMSQELCIVMCLKDLTSIVDIKTSSRPAMIGSLTDGSTETFWESGDEDKNKTKNITINCVKGINARYVSVHVDNSRDLGNKVTSMTFLTGKAVEELCRIKQVDLDSRHIGWVTSELPGGDNQIIKIELKGPENTLRVRQVKVLGWKDGESTKIAGQISASVAQQRSCEAETLRVFRLITSQVFGKLISGDAEPTPEQEEKALLSSPEGEEKATSDADLKEHMVGIIFSRSKLTNLQKQVCAHIVQAIRMEATRVREEWEHAISSKENANSQPSDEDASSDAYCFELLSMVLALSGSNVGRQYLAQQLTLLQDLFSLLHTASPRVQRQVTSLLRRVLPEVTPNRLASIIGVKSLPPADISDIIHSTEKGDWNKLGILDMFLGCIAKALTVQLKAKGTTITGTAGTTVGKGVTTVTLPMIFNSSYLRRGESHWWMKGSTPTQISEIIIRLIKDMAAGHLSEAWSRVTKNAIAETIIALTKMEEEFRSPVRCIATTRLWLALASLCVLDQDHVDRLSSGRWMGKDGQQKQMPMCDNHDDGETAAIILCNICGNLCTDCDRFLHLHRRTKTHQRQVFKEEEEAIKVDLHEGCGRTKLFWLMALADSKTMKAMVEFREHTGKPTTSSSEACRFCGSRSGTELSAVGSVCSDADCQEYAKIACSKTHPCGHPCGGVRNEEHCLPCLHGCDKSATTLKQDADDMCMICFTEALSAAPAIQLDCSHVFHLQCCRRVLENRWLGPRITFGFISCPICKNKINHIVLKDLLDPIKELYEDVRRKALMRLEYEGLHKSEAITTEGHHHHHH” the value was “not soluble”.

The values are drawn from the DeepSol protein solubility set.
